Here are results for nine molecules from patent US20220281948A1 (UNIVERSITY HEALTH NETWORK, published 2022).

Assay [1] concerns the target T1, soluble CD4 (sCD4): human CD4 extracellular domain fused with a 6×His tag via a GS linker, dimerized with a … (human, UniProt P01730 26-396).
T1 construct: also called soluble CD4 protein; soluble CD4 dimer
Briefly: flow cytometry, sCD4 MFI of K562 cells. (In general: A flow cytometer gives signals particle by particle.)

The target of assay [2] is T1, soluble CD4 (sCD4): human CD4 …. Briefly: flow cytometry, K562 cells.
Assay [3] concerns the target T2, recombinant 10× His-tagged CD4 protein (extracellular domain of human CD4, GS linker, 10× histidine tag) (human, UniProt P01730 26-390).
T2 construct: also called recombinant CD4; sCD4 (analyte)
Briefly: biolayer interferometry.

In assay [4] the target is T2, recombinant 10× His-tagged CD4 protein …. Briefly: BLI KD set against the earlier estimate of KD >2 mM between CD4 and HLA class II.
The target is the same in assay [5]. Briefly: biolayer interferometry (Octet Red), biotinylated DP4 on streptavidin sensors, CD4 as analyte, steady-state fit. (In general: In BLI a coated tip is dipped into the sample, and binding shifts an interference pattern.)

B1: V114M (other)
DP alpha chain: IKADHVSTYAAFVQTHRPTGEFMFEFDEDEMFYVDLDKKETVWHLEEFGQAFSFEAQGGLANIAILNNNLNTLIQRSNHTQATNDPPEVTVFPKEPVELGQPNTLICHIDKFFPPVLNVTWLCNGELVTEGVAESLFLPRTDYSFHKFHYLTFVPSAEDFYDCRVEHWGLDQPLLKHWEAQEPIQMPETTET
DP beta chain: RATPENYLFQGRQECYAFNGTQRFLERYIYNREEFARFDSDVGEFRAVTELGRPAAEYWNSQKDILEEKRAVPDRMCRHNYELGGPMTLQRRVQPRVNVSPSKKGPLQHHNLLMCHVTDFYPGSIQVRWFLNGQEETAGVVSTNLIRNGDWTFQILVMLEMTPQQGDVYTCQVEHTSLDSPVTVEWKAQSDSARSK
notes: also called DP4 with the single V114M substitution on K562 cells
With B1, the binding result in assay [1] is recorded as “no binding”.

B2: L112W/V114M (other)
DP alpha chain: IKADHVSTYAAFVQTHRPTGEFMFEFDEDEMFYVDLDKKETVWHLEEFGQAFSFEAQGGLANIAILNNNLNTLIQRSNHTQATNDPPEVTVFPKEPVELGQPNTLICHIDKFFPPVLNVTWLCNGELVTEGVAESLFLPRTDYSFHKFHYLTFVPSAEDFYDCRVEHWGLDQPLLKHWEAQEPIQMPETTET
DP beta chain: RATPENYLFQGRQECYAFNGTQRFLERYIYNREEFARFDSDVGEFRAVTELGRPAAEYWNSQKDILEEKRAVPDRMCRHNYELGGPMTLQRRVQPRVNVSPSKKGPLQHHNWLMCHVTDFYPGSIQVRWFLNGQEETAGVVSTNLIRNGDWTFQILVMLEMTPQQGDVYTCQVEHTSLDSPVTVEWKAQSDSARSK
notes: also called DP4 reversion mutant on K562 cells
Consider B2, for which the binding result in assay [1] is listed as “no binding”.

B3: V114M/M158I (other)
DP alpha chain: IKADHVSTYAAFVQTHRPTGEFMFEFDEDEMFYVDLDKKETVWHLEEFGQAFSFEAQGGLANIAILNNNLNTLIQRSNHTQATNDPPEVTVFPKEPVELGQPNTLICHIDKFFPPVLNVTWLCNGELVTEGVAESLFLPRTDYSFHKFHYLTFVPSAEDFYDCRVEHWGLDQPLLKHWEAQEPIQMPETTET
DP beta chain: RATPENYLFQGRQECYAFNGTQRFLERYIYNREEFARFDSDVGEFRAVTELGRPAAEYWNSQKDILEEKRAVPDRMCRHNYELGGPMTLQRRVQPRVNVSPSKKGPLQHHNLLMCHVTDFYPGSIQVRWFLNGQEETAGVVSTNLIRNGDWTFQILVILEMTPQQGDVYTCQVEHTSLDSPVTVEWKAQSDSARSK
notes: as for B2
With B3, the binding result in assay [1] is recorded as “no binding”.

B4: L112W/V114M/M158I (other)
DP alpha chain: IKADHVSTYAAFVQTHRPTGEFMFEFDEDEMFYVDLDKKETVWHLEEFGQAFSFEAQGGLANIAILNNNLNTLIQRSNHTQATNDPPEVTVFPKEPVELGQPNTLICHIDKFFPPVLNVTWLCNGELVTEGVAESLFLPRTDYSFHKFHYLTFVPSAEDFYDCRVEHWGLDQPLLKHWEAQEPIQMPETTET
DP beta chain: RATPENYLFQGRQECYAFNGTQRFLERYIYNREEFARFDSDVGEFRAVTELGRPAAEYWNSQKDILEEKRAVPDRMCRHNYELGGPMTLQRRVQPRVNVSPSKKGPLQHHNWLMCHVTDFYPGSIQVRWFLNGQEETAGVVSTNLIRNGDWTFQILVILEMTPQQGDVYTCQVEHTSLDSPVTVEWKAQSDSARSK
notes: as for B2
Turning to B4, the binding result in assay [1] is “no binding”.

B5: L112W/M158I (other)
DP alpha chain: IKADHVSTYAAFVQTHRPTGEFMFEFDEDEMFYVDLDKKETVWHLEEFGQAFSFEAQGGLANIAILNNNLNTLIQRSNHTQATNDPPEVTVFPKEPVELGQPNTLICHIDKFFPPVLNVTWLCNGELVTEGVAESLFLPRTDYSFHKFHYLTFVPSAEDFYDCRVEHWGLDQPLLKHWEAQEPIQMPETTET
DP beta chain: RATPENYLFQGRQECYAFNGTQRFLERYIYNREEFARFDSDVGEFRAVTELGRPAAEYWNSQKDILEEKRAVPDRMCRHNYELGGPMTLQRRVQPRVNVSPSKKGPLQHHNWLVCHVTDFYPGSIQVRWFLNGQEETAGVVSTNLIRNGDWTFQILVILEMTPQQGDVYTCQVEHTSLDSPVTVEWKAQSDSARSK
notes: as for B2
With B5, in assay [1], the binding result was “no binding”.

B6: M158I (other)
DP alpha chain: IKADHVSTYAAFVQTHRPTGEFMFEFDEDEMFYVDLDKKETVWHLEEFGQAFSFEAQGGLANIAILNNNLNTLIQRSNHTQATNDPPEVTVFPKEPVELGQPNTLICHIDKFFPPVLNVTWLCNGELVTEGVAESLFLPRTDYSFHKFHYLTFVPSAEDFYDCRVEHWGLDQPLLKHWEAQEPIQMPETTET
DP beta chain: RATPENYLFQGRQECYAFNGTQRFLERYIYNREEFARFDSDVGEFRAVTELGRPAAEYWNSQKDILEEKRAVPDRMCRHNYELGGPMTLQRRVQPRVNVSPSKKGPLQHHNLLVCHVTDFYPGSIQVRWFLNGQEETAGVVSTNLIRNGDWTFQILVILEMTPQQGDVYTCQVEHTSLDSPVTVEWKAQSDSARSK
notes: also called DP4 with the single M158I substitution on K562 cells
Turning to B6, the binding result in assay [1] is “no binding”.

B7: wild-type DP4 (DPA1*01:03 / DPB1*04:01) on K562 cells (other, human)
MHC II alpha: not shown
MHC II beta: not shown
notes: whole, on cells; also called HLA-DP4
Take B7: in assay [2], the binding result was “no binding”.

B8: biotinylated recombinant wild-type DP4 (extracellular domains of DPA1*01:03 and wild-type DPB1*04:01, leucine zippers) (other)
MHC II alpha: IKADHVSTYAAFVQTHRPTGEFMFEFDEDEMFYVDLDKKETVWHLEEFGQAFSFEAQGGLANIAILNNNLNTLIQRSNHTQATNDPPEVTVFPKEPVELGQPNTLICHIDKFFPPVLNVTWLCNGELVTEGVAESLFLPRTDYSFHKFHYLTFVPSAEDFYDCRVEHWGLDQPLLKHWEAQEPIQMPETTETGGGGSLEIRAAFLRQRNTALRTEVAELEQEVQRLENEVSQYETRYGPLGGGKGSHHHHHHHHHH
MHC II beta: RATPENYLFQGRQECYAFNGTQRFLERYIYNREEFARFDSDVGEFRAVTELGRPAAEYWNSQKDILEEKRAVPDRMCRHNYELGGPMTLQRRVQPRVNVSPSKKGPLQHHNLLVCHVTDFYPGSIQVRWFLNGQEETAGVVSTNLIRNGDWTFQILVMLEMTPQQGDVYTCQVEHTSLDSPVTVEWKAQSDSARSKGGGGSLEIEAAFLERENTALETRVAELRQRVQRLRNRVSQYRTRYGPLGGGKGSGLNDIFEAQKIEWHE
notes: also called biotinylated wild-type DP4 (ligand)
On to B8, for which the binding result in assay [3] was “no binding (tested: 26 µM)”.

B9: biotinylated recombinant DP4^[change]/[change] (extracellular domains of DPA1*01:03 and DPB1*04:01 [ (other)
MHC II alpha: IKADHVSTYAAFVQTHRPTGEFMFEFDEDEMFYVDLDKKETVWHLEEFGQAFSFEAQGGLANIAILNNNLNTLIQRSNHTQATNDPPEVTVFPKEPVELGQPNTLICHIDKFFPPVLNVTWLCNGELVTEGVAESLFLPRTDYSFHKFHYLTFVPSAEDFYDCRVEHWGLDQPLLKHWEAQEPIQMPETTETGGGGSLEIRAAFLRQRNTALRTEVAELEQEVQRLENEVSQYETRYGPLGGGKGSHHHHHHHHHH
MHC II beta: RATPENYLFQGRQECYAFNGTQRFLERYIYNREEFARFDSDVGEFRAVTELGRPAAEYWNSQKDILEEKRAVPDRMCRHNYELGGPMTLQRRVQPRVNVSPSKKGPLQHHNWLVCHVTDFYPGSIQVRWFLNGQEETAGVMSTNLIRNGDWTFQILVMLEMTPQQGDVYTCQVEHTSLDSPVTVEWKAQSDSARSKGGGGSLEIEAAFLERENTALETRVAELRQRVQRLRNRVSQYRTRYGPLGGGKGSGLNDIFEAQKIEWHE
B9: the “fold improvement in the binding affinity” value in assay [4] was ≥ 200 fold. Also, the Kd (as a rule, the constant that tells how readily two partners part at equilibrium) in assay [5] was determined as 8.9 µM.
